Data from article PMC8173005.

Columns and labels:
[1] = molecular target: staphylococcal protein A ligand of the BabyBio A column (Bio-Works) (staphylococcal (so in the source)); assay: affinity chromatography; dynamic binding capacity at 10% breakthrough; 1 mL columns of peptide-coupled agarose or BabyBio A; 1 mg/mL infliximab in 0.01% PBST pH 7.4 loaded at 0.5 mL/min; elution with 20 mM glycine-HCl pH 3.0 (peptide resins) or 100 mM Na-citrate pH 3.0 (BabyBio A)
[2] = molecular target: polyclonal human IgG (Octagam, Octapharma) (human); assay: ELISA; phage ELISA; MaxiSorp wells coated with human polyclonal IgG (Octagam, 5 µg/mL), blocked with skimmed milk; peptide-displaying phagemid virions in solution, 2 × 10^9 virions per well or serial dilutions from 2.5 × 10^10 to 1.95 × 10^8 virions per well; detection with HRP-conjugated anti-M13 antibody and TMB; triplicate

| Molecule | amount of infliximab in the eluate [1] [mg] | dynamic binding capacity at 10% breakthrough [1] [mg/mL] | fold higher estimated affinity than the parent peptide min19Fc-Q6D [2] [fold] |
| --- | --- | --- | --- |
| infliximab (Remsima, Celltrion) (antibody) | 41.2 | 41.3 |  |
| GSYWYNVWF [peptide A displayed on pIT2-SL phagemid virions] |  |  | 16 |
